Target: Glial cell line-derived neurotrophic factor (GDNF), immobilised for SPR (UniProt P39905)
Experiment: SPR

Kd: 85.5 nM
B1: Activin receptor-like kinase 5 (ALK5), analyte in SPR (receptor)
chain: LQCFCHLCTKDNFTCVTDGLCFVSVTETTDKVIHNSMCIAEIDLIPRDRPFVCAPSSKTGSVTTTYCCNQDHCNKIELPTTVKSSPGLGPVELAAVIAGPVCFVCISLMLMVYICHNRTVIHHRVPNEEDPSLDRPFISEGTTLKDLIYDMTTSGSGSGLPLLVQRTIARTIVLQESIGKGRFGEVWRGKWRGEEVAVKIFSSREERSWFREAEIYQTVMLRHENILGFIAADNKDNGTWTQLWLVSDYHEHGSLFDYLNRYTVTVEGMIKLALSTASGLAHLHMEIVGTQGKPAIAHRDLKSKNILVKKNGTCCIADLGLAVRHDSATDTIDIAPNHRVGTKRYMAPEVLDDSINMKHFESFKRADIYAMGLVFWEIARRCSIGGIHEDYQLPYYDLVPSDPSVEEMRKVVCEQKLRPNIPNRWQSCEALRVMAKIMRECWYANGAARLTALRIKKTLSQLSQQEGIKM
